The test deals with 人Claudin18.2 (human) (UniProt P56856). Nature of the test: cell-based or functional assay.

B1: 鼠单抗1B10 (antibody, V domains shown)
VH: QVQLKESGPGLVAPSQSLSITCTVSGFSLTSYVINWVRQPPGKGLEWLGVIWTGGGTNYNSALKSRLSISKDTSKSQVFLKMNSLQTDDTARYYCARGAYYGNAMDYWGQGTSVTVSS
VL: DIVMTQSPSSLTVTAGEKVTMSCKSSQSLLNSGNQKNYLTWYQQKPGQPPKLLIYWAATRESGVPDRFTGSGSGTDFTLTISSVQAEDLAVYYCQNDYSYPFTFGSGTKLEIK
As for B1, the 活细胞比率 (CDC, 20%人血浆, 30min, 293T-hClaudin18.2细胞; 无抗体对照81.34%) was 34%.

B2: 鼠单抗1A6 (antibody, V domains shown)
VH: QVQLQQPGAELVKPGASVKLSCKASGYTFTSYWMQWVKQRPGQGLEWIGMTHPNSGGTNYNEKFKSKATLTVDKSSSTAYMQLSSLTSEDSAVYYCARLGRGNAMDYWGQGTSVTVSS
VL: DIVMTQSPSSLTVTAGEKVTMSCKSSQSLLNSGNQKNYLTWYQQKPGQPPKLLIYWASTRKSGVPDRFTGSGSGTDFTLTISSVQAEDLTIYYCQNDYSYPFTFGSGTKLEIK
For the molecule B2, the 活细胞比率 (CDC, 20%人血浆, 30min, 293T-hClaudin18.2细胞; 无抗体对照81.34%) was 3.94%.

Values taken from patent publication CN114907482A.
